In US20090180995A1, “NOVEL ANTICOAGULANT POLYPEPTIDES AND COMPLEX” (National University of Singapore, priority 2005, published 2009):

B1: hemextin B (protein)
chain: LKCKNKVVPFLKCKNKVVPFLCYKMTLKKVPKIPIKRGCTDACPKSSLLVNVMCCKTDKCN
B2: hemextin A (protein)
chain: LKCKNKLVPFLSKTCPEGKNLCYKMTMLKMPKIPIKRGCTDACPKSSLLVKVVCCNKDKCN
B3: hemextin AB complex: synergistic 1:1 tetrameric complex of hemextin A and hemextin B, reconstituted from equimolar proteins (protein)
chain 1: B2 chain
chain 2: B1 chain

Experiments:
Type in all cases: biochemical
[1] = tested on: plasma; experiment: Stypven time; details: human plasma, RVV
Protocol: (§1) Anticoagulant activity—The anticoagulant activities of H. haemachatus venom and its fractions was determined by four coagulation tests using a BBL fibrometer: • 1. Recalcification time: The recalcification times were determined according to the method of Langdell et al. (25). 50 mM Tris-HCl buffer (pH 7.4) (100 μl), plasma (100 μl) and various concentrations of venom or its fraction (50 μl) were preincubated for 2 min at 37° C. Clotting was initiated by the addition of 50 μl of 50 mM CaCl2. • 2. Prothrombin time: The prothrombin times were measured according to the method of Quick (26). […] Clotting was initiated by the addition of thromboplastin with calcium reagent (150 μl) which can be purchased from Sigma (St. Louis, Mo., USA). • For studying the role of electrostatic interactions, the anticoagulant activity of a specific concentration of hemextin A (4.4 μM), hemextin B (4.4 μM) and hemextin AB complex (0.11 μM) was monitored in 50 mM Tris-HCl (pH 7.4) containing various concentrations of NaCl (35 mM to 150 mM). • For studying the role of hydrophobic interactions, the anticoagulant activity of a specific concentration of hemextin A (4.4 μM), hemextin B (4.4 μM) and hemextin AB complex (0.11 μM) was monitored in 50 mM Tris-HCl (pH 7.4) containing various concentrations of glycerol (125 mM to 250 mM). • 2. […] Thrombin time: Thrombin time was determined according to the method of Jim (28). […]

[2] = target: T1, TF-FVIIa complex (Homo sapiens, UniProt P08709); experiment: Reconstituted extrinsic tenase complex, FXa formation; details: for inhibition of extrinsic tenase activity: 10 pM FVIIa, 70 nM TF, 30 nM FX, FXa by S-2222
T1 construct: tissue Dade Behring Marburg, Germany (TF, Innovin only); host or cells: human plasma (FVIIa)
T1 sequence (P08709 61-212 limits assumed): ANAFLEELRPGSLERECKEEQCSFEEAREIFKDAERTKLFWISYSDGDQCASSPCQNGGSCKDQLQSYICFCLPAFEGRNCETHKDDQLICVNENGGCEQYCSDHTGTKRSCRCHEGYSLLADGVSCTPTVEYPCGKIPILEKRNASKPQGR
T1 sequence (P08709 213-466 limits assumed): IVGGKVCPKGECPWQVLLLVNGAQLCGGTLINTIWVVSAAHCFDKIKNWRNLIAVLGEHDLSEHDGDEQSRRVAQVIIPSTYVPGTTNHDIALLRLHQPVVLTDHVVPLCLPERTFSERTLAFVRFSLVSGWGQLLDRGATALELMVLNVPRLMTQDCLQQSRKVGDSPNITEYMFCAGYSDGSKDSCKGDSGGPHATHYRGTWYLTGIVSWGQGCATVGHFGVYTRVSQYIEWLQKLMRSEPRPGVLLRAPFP
T1 sequence (P13726 33-295 partner): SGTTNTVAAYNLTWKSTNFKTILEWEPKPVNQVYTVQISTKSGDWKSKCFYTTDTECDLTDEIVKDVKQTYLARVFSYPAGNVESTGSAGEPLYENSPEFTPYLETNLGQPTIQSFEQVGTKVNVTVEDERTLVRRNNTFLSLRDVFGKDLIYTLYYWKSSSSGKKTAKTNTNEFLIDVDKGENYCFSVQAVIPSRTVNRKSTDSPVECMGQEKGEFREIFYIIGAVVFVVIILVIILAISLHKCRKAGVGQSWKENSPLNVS
Protocol: Reconstitution of the extrinsic tenase complex—TF-FVIIa complex was reconstituted by incubating 10 pM FVIIa with 70 nM of recombinant human TF (Innovin) in Buffer A (20 mM HEPES, 150 mM NaCl, 10 mM CaCl2 and 1% BSA, pH 7.4) for 10 min at 37° C. Then FX was added to the mixture to obtain a final concentration of 30 nM. The activation was stopped by the addition 50 μl of stop buffer (20 mM HEPES, 150 mM NaCl, 50 mM EDTA and 1% BSA, pH 7.4) to 50 μl aliquots of the reaction mixture after 15 min incubation. FXa formed was measured by the hydrolysis 1 mM of S-2222 in Buffer A in a microtiter plate reader at 405 nm. The inhibitory effect on extrinsic tenase activity was determined by adding the individual proteins or the anticoagulant complex 15 min prior to FX addition.

[3] = tested on: plasma; experiment: Thrombin time; details: human plasma, thrombin reagent
Protocol: as §1

[4] = target: T2, FVIIa-sTF (Homo sapiens, UniProt P08709); experiment: FVIIa-sTF amidolytic activity; details: FVIIa-sTF (30 nM)/S-2288
T2 construct: made in house; host or cells: Saccharomyces cerevisiae (sTF); human plasma (FVIIa)
T2 sequence (P08709 61-212 limits assumed): as the sequence (P08709 61-212 limits assumed) above
T2 sequence (P08709 213-466 limits assumed): as the sequence (P08709 213-466 limits assumed) above
T2 sequence (P13726 33-251 partner limits assumed): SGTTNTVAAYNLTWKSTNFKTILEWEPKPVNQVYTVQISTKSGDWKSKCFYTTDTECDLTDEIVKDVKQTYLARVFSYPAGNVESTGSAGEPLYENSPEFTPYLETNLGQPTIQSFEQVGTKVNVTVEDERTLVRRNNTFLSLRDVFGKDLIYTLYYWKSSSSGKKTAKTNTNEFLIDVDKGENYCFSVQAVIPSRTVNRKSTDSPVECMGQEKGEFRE
Protocol: Serine protease specificity—The selectivity profile of anticoagulant proteins and their complex was examined against 12 serine proteases—procoagulant serine proteases (FIXa, FXa, FXIa, FXIIa, plasma kallikrein and thrombin), anticoagulant serine protease (APC), fibrinolytic serine proteases (urokinase, t-PA and plasmin) and classical serine proteases (trypsin and chymotrypsin). Various concentrations of purified hemextin A/hemextin B and reconstituted hemextin AB complex were preincubated with each of the enzymes (Table 1) for a period of five minutes at a temperature of 37° C., followed by the addition of appropriate chromogenic substrate.
For studies with FXIa, kallikrein and urokinase, the appropriate substrates were determined prior to their screening against the inhibitors. For FXIa, the Vmax for the amidolytic activity corresponding to the chromogenic substrates S-2266, S-2302 and S-2366 was determined. S-2302 was the substrate with the highest Vmax and thus was used in the screening studies. Similar studies with kallikrein and urokinase were carried out with substrates S-2266, S-2302 and S-2288 for kallikrein and S-2444 and S-2484 for urokinase. […] The kinetic rate of substrate hydrolysis (mOD/min) was measured over 5 min.

| Molecule | clotting time, Stypven time [1] | inhibition of extrinsic tenase activity [2] | inhibitory activity of hemextin A on extrinsic tenase with increasing hemextin B ([2]; hemextin A constant at 50 μM) | clotting time, thrombin time [3] | inhibition of FVIIa-sTF amidolytic activity [4] |
| --- | --- | --- | --- | --- | --- |
| B1 | did not prolong clotting times | did not mediate any inhibitory activity | increases with the increasing concentrations of hemextin B until the ratio reached 1:1 | did not prolong clotting times |  |
| B2 | did not prolong | mild inhibitory activity at higher concentrations |  | did not prolong | potent inhibitory activity |
| B3 |  | completely inhibited |  |  | potent inhibitory activity |
